{"source": "patent US20150231240A1", "about": "“ANTI-C16ORF54 ANTIBODIES AND METHODS OF USE THEREOF” (priority 2012, published 2015)", "key": {"[1]": {"biological_target": "T1, N-terminal 32 amino acids of huC16orf54 (Homo sapiens, UniProt Q6UWD8)", "T1 sequence (Q6UWD8 1-32 limits assumed)": "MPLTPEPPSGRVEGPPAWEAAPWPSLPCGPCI", "experiment": "Off-rate screen of hybridoma supernatants on OctetQK384 (biolayer interferometry)", "assay_type": "binding", "settings": "calculated off-rate", "method": "Eight anti-huC16orf54 monoclonal antibodies were further screened for binding and subsequent off-rate analysis using the OctetQK384® sytem (ForteBio). Hybridoma supernatants were screened for association to and dissocation from streptavidin sensors coated with the N-terminal 32 amino acids of huC16orf54 coupled to biotin, and the calculated offrates (kdis) are shown in Table 31. Cloned hybridomas with […] off-rates were carried forward for antibody purification."}, "[2]": {"biological_target": "T2, C16orf54 on cell lines and primary samples (Homo sapiens, UniProt Q6UWD8)", "T2 sequence (Q6UWD8 1-224)": "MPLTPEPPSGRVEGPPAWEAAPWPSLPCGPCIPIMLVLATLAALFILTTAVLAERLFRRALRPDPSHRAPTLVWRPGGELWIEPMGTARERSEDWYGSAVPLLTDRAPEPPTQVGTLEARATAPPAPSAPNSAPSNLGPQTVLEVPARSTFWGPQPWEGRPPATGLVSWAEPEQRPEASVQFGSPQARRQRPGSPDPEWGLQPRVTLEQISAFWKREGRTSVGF", "experiment": "C16orf54 copy number enumeration by flow cytometry with AlexaFluor647 conjugated antibody", "assay_type": "binding", "method": "In some assays, human cell lines and primary samples were immunofluorescently stained using an anti-C16orf54 monoclonal antibody R29-7-1C that was conjugated to AlexaFluor647, and copy number of C16orf54 was determined by interpolation on a calibration curve generated by Quantum™ Simply Cellular® bead standards (Bangs Laboratories, Inc.) Copy number results are shown in Table 39 various cell lines and primary samples expressing C16orf54. […]"}, "[3]": {"tested_on": "KG-1 (acute myeloid leukemia) xenograft", "assay_type": "in vivo, NOD-SCID mice", "settings": "for tumor growth inhibition (in words) / tumor growth inhibition: KG-1 xenograft; for tumor growth inhibition (in words): compared to control IgG, antibodies weekly; for tumor growth inhibition: treatment initiated at 92 mm^3, HB121 IgG isotype negative control; for TGI (tumor growth inhibition) / Mean (tumor volume): Table 42, KG-1 AML model, NOD-SCID mice, weekly administration; for Mean (tumor volume): in mm³ (unit assumed)", "method": "Subcutaneous tumors are generated by injection of 1×10^7 cancer cells in a mixture of PBS (without magnesium or calcium) and BD Matrigel™ (BD Biosciences) at a 1:1 ratio in the right flank of female SCID or nu^−/− mice. The injected total volume per mouse is […] with 50% being Matrigel (BD Biosciences). Mice are randomized once tumors reach a size between 65-200 mm^3. Antibodies are administered weekly, and body weights and tumors are measured once and twice weekly, respectively. Tumor volume is calculated as described (van der Horst et al. (2009) Neoplasia 11: 355-364). As a negative control, mice are injected with either purified mouse IgG or PBS; or a purified monoclonal antibody that recognizes an antigen other than C16orf54.\nAnti-C16orf54 antibodies were tested for their anti-tumor activity in an animal-tumor model. For these studies, the cell line KG-1 (acute myeloid leukemia) was obtained from ATCC and cultured according to the suppliers' protocols. Animals were obtained from Taconic (Hudson, N.Y.). Studies were conducted with anti-C16orf54 antibodies and antibody-drug conjugates (ADCs) of these antibodies.\nIn these experiments, 4-6 week-old immunodeficient NOD-SCID female mice were used for the KG-1 tumor model. Mice were subcutaneously injected on the right flank with 6×10^6 viable cells (KG-1) in a mixture of PBS (without magnesium or calcium) and BD Matrigel™ (BD Biosciences). Once the tumor reached a size between 65-200 mm^3 mice were randomized. Anti-C16orf54 antibodies were administered weekly, and bodyweights and tumors were measured once and twice weekly, respectively. Tumor volume was calculated as described (van der Horst et al., supra). Experiments were performed on groups of at least eight animals per experimental point.\nStatistical significance between treatment and control groups was calculated using the Graphpad Prism® software package and applying Student's two-tailed t-test. A p-value of less than 0.05 was considered significant."}, "[4]": {"biological_target": "T3, human C16orf54 ECD fragment aa1-15 (human)", "T3 peptide": "MPLTPEPPSGRVEGP", "experiment": "peptide ELISA, 2 ug/ml peptide coated, 10 ug/ml antibody", "method": "(§1) Anti-C16orf54 antibodies which bind to human C16orf54, including antibodies that are crossreactive with cyno C16orf54, were tested for their binding to various peptides derived from C16orf54 in a peptide ELISA. A 384-well high binding black microplate (Greiner) was incubated with 2 μg/ml of protein (human, cyno, or mouse extracellular domain peptides) for 16 hours, incubated for 1 hr with a blocking buffer (PBS with 5% Fetal Bovine Serum), washed four times with TBS with Tween, incubated for 1 hour with 10 μg/ml of anti-C16orf54 antibody, washed four times with TBS with Tween, incubated for 1 hour with 10 μg/ml of Peroxidase-AffiniPure Goat Anti-Mouse IgG, Fcγ Fragment Specific (Jackson ImmunoResearch), washed four times with TBS with Tween, and peroxidase was detected with a luminometer (Molecular Devices) upon addition of SuperSignal® ELISA Pico Chemiluminescent Substrate (Thermo Scientific). The luminescence signal was determined."}, "[5]": {"biological_target": "T4, human C16orf54 ECD fragment aa9-24 (human)", "T4 peptide": "SGRVEGPPAWEAAPWP", "experiment": "peptide ELISA, 2 ug/ml peptide coated, 10 ug/ml antibody", "method": "as §1"}, "[6]": {"biological_target": "T5, human C16orf54 (human, UniProt Q6UWD8 1-224)", "T5 construct": "also called huC16orf54; hC16orf54", "T5 sequence": "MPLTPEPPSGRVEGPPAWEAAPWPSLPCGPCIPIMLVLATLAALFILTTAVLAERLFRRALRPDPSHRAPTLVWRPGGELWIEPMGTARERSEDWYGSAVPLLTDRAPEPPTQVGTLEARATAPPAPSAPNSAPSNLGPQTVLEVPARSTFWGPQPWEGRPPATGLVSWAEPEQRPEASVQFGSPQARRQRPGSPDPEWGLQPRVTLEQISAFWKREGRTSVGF", "experiment": "flow cytometry, KARPAS-1106P lymphoma cells (endogenous C16orf54), 1 repeat"}, "[7]": {"biological_target": "T6, Human C16-ECD peptide (aa1-31) (human)", "T6 construct": "Coated on plates in the peptide ELISA; also called human extracellular domain peptide", "T6 peptide": "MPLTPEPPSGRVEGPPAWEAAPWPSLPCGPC", "experiment": "column head 'Full kinetics (nM)' in the table of the C16orf54 peptide binding assays; method and antigen not described; 4 runs"}, "[8]": {"biological_target": "T5, human C16orf54", "experiment": "cell ELISA on huC16orf54-expressing sarcoma cells, purified antibody in 1:4 eight-point dilution from 200 nM, 2 h at 4 C, anti-mouse IgG Fc HRP luminescence", "method": "Purified anti-huC16orf54 monoclonal antibodies were also tested for binding by ELISA. huC16orf54-expressing sarcoma cells were incubated with an 1:4 eight-point dilution series starting with 200 nM of anti-huC16orf54 antibody for 2 hours at 4° C. After washing, the cells were incubated with a secondary antibody (Jackson Immunologicals Goat×IgG, Fc specific HRP—Product#115-035-071) and detected with SuperSignal® ELISA Pico Chemiluminescent substrate (Thermo Scientific—Product#37069). EC50 values were determined using Graphpad Prism® software. An isotype control, R22-4-26A, is also shown."}}, "data": [{"molecule": "R29-7-1C: murine anti-C16orf54 monoclonal antibody, IgG2a; VH SEQ ID NO: 8, VL SEQ ID NO: 10 (antibody, V domains shown, R29-7-1C heavy chain variable region; R29-7-1C light chain variable region) VH: MRVLILLWLFTAFPGILSDVQLQESGPGLVKPSQSLSLTCTVTGYSITSDYAWNWIRQFPGNKLEWMGYISYSGSIRYNPSLKSRISITRDTSKNQFFLQLNSVTTEDTATYYCAREKYDNYYYAMDYWGQGTSVTVSS VL: MDSQAQVLMLLLLWVSGTCGDIVMSQSPSSLAVSVGEKVTLSCKSSQNLLYSTNQKNYLAWYQQKPGQSPKLLIYWASTRESGVPDRFTGSGSGTDFTLTISSVKAEDLAVYYCQQYYSYRTFGGGTKLEIK", "values": [{"measurement": "kdis", "setting": "[1]", "result": 0.0102, "unit": "s⁻¹"}, {"measurement": "Bang's analysis Average copy #", "setting": "[2]; Human cell line KG1/lymphoblast", "result": "19,975 (1)"}, {"measurement": "Bang's analysis Average copy #", "setting": "[2]; Human cell line KG1/myeloblast", "result": "29,971 (10)"}, {"measurement": "Bang's analysis Average copy #", "setting": "[2]; Human cell line KG1A", "result": "11,198 (1)"}, {"measurement": "Bang's analysis Average copy #", "setting": "[2]; Human cell line WSU-DLCL2", "result": "5,517 (3)"}, {"measurement": "Bang's analysis Average copy #", "setting": "[2]; Human cell line WSU-FSCCL", "result": "4,221 (3)"}, {"measurement": "Bang's analysis Average copy #", "setting": "[2]; Primary Sample CLL 1", "result": "3,979 (1)"}, {"measurement": "Bang's analysis Average copy #", "setting": "[2]; Primary Sample CLL 2", "result": "10,515 (1)"}, {"measurement": "Bang's analysis Average copy #", "setting": "[2]; Primary Sample CLL 3", "result": "12,277 (1)"}, {"measurement": "Bang's analysis Average copy #", "setting": "[2]; Primary Sample CLL 4", "result": "11,240 (1)"}, {"measurement": "Bang's analysis Average copy #", "setting": "[2]; Primary Sample Lymphoma 1", "result": "10,630 (1)"}, {"measurement": "Bang's analysis Average copy #", "setting": "[2]; Primary Sample Lymphoma 2", "result": "34,397 (1)"}, {"measurement": "Bang's analysis Average copy #", "setting": "[2]; Primary Sample MM 1", "result": "5,798 (1)"}, {"measurement": "Bang's analysis Average copy #", "setting": "[2]; Primary Sample MM 2", "result": "7,590 (1)"}, {"measurement": "tumor growth inhibition (in words)", "setting": "[3]", "result": "inhibitors of tumor growth"}, {"measurement": "tumor growth inhibition", "setting": "[3]", "result": 69, "unit": "%"}, {"measurement": "TGI (tumor growth inhibition)", "setting": "[3]", "result": "−8", "unit": "%"}, {"measurement": "Mean (tumor volume)", "setting": "[3]", "result": 2813.4}]}, {"molecule": "R29-67-7A: murine anti-C16orf54 monoclonal antibody, IgG2a; VH SEQ ID NO: 12, VL SEQ ID NO: 14 (antibody, V domains shown, R29-67-7A heavy chain variable region; R29-67-7A light chain variable region) VH: MRVLILLWLFTAFPGILSDVQLQESGPGLVKPSQSLSLTCTVTGYSITSDYAWNWIRQFPGNKLEWMGYINYSGRTRYNPSLNSRISLTRDTSTNQFFLQLNSVTTEDTATYYCARENYDYEFYAMDYWGQGTSVTVSS VL: MESQAQVLMLLLLWVSGTCGDIVMSQSPSSLAVSVGEKVTMSCKSSQNLLYSSNQKNYLAWYQQKPGQSPKLLIYWASTRESGVPDRFTGSGSGTDFTLTISSVKAEDLAVYYCQQYYIYRTFGGGTKLEIK", "values": [{"measurement": "kdis", "setting": "[1]", "result": 0.00845, "unit": "s⁻¹"}, {"measurement": "tumor growth inhibition (in words)", "setting": "[3]", "result": "inhibitors of tumor growth"}, {"measurement": "tumor growth inhibition", "setting": "[3]", "result": 70, "unit": "%"}, {"measurement": "TGI (tumor growth inhibition)", "setting": "[3]", "result": 6, "unit": "%"}, {"measurement": "Mean (tumor volume)", "setting": "[3]", "result": 3221.4}]}, {"molecule": "R29-7-1C (antibody, V domains shown, Murine monoclonal IgG2a from a hybridoma) VH: DVQLQESGPGLVKPSQSLSLTCTVTGYSITSDYAWNWIRQFPGNKLEWMGYISYSGSIRYNPSLKSRISITRDTSKNQFFLQLNSVTTEDTATYYCAREKYDNYYYAMDYWGQGTSVTVSS VL: DIVMSQSPSSLAVSVGEKVTLSCKSSQNLLYSTNQKNYLAWYQQKPGQSPKLLIYWASTRESGVPDRFTGSGSGTDFTLTISSVKAEDLAVYYCQQYYSYRTFGGGTKLEIK", "values": [{"measurement": "binding result", "setting": "[4]", "result": "binds"}, {"measurement": "binding result", "setting": "[5]", "result": "binds"}, {"measurement": "Average MFI fold change relative to isotype control", "setting": "[6]", "result": 10.5, "unit": "fold"}, {"measurement": "Kd", "setting": "[7]", "result": 0.77, "unit": "nM"}, {"measurement": "EC50 (read off the curve)", "setting": "[8]", "result": "~0.07", "unit": "nM"}]}]}
